From patent publication US20160047001A1, “Sept4/ARTS AS A TUMOR SUPPRESSOR IN THE DIAGNOSIS, PROGNOSIS AND TREATMENT OF HEPATIC DISORDERS” (CARMEL-HAIFA UNIVERSITY ECONOMIC CORPORATION LTD., priority 2013, published 2016)
Entries after “also recorded” stand apart in the source; their conditions may differ.

B1: sh-ARTS-2: miR30-designed shRNA specifically targeting ARTS, in pLMP retroviral vector (nucleic acid)
chain: TGCTGTTGACAGTGAGCGAAACAGGCCGAGTAGCACCACATAGTGAAGCCACAGATGTATGTGGTGCTACTCGGCCTGTTCTGCCTACTGCCTCGGA
B2: sh-ARTS-1: miR30-designed shRNA specifically targeting ARTS, in pLMP retroviral vector (nucleic acid)
chain: TGCTGTTGACAGTGAGCGCAAGGGAACAGGCCGAGTAGCATAGTGAAGCCACAGATGTATGCTACTCGGCCTGTTCCCTTATGCCTACTGCCTCGGA
B3: sh-ARTS-3: miR30-designed shRNA specifically targeting ARTS, in pLMP retroviral vector (nucleic acid)
chain: TGCTGTTGACAGTGAGCGACGGGTGGTCACTGATTCCTGTTAGTGAAGCCACAGATGTAACAGGAATCAGTGACCACCCGCTGCCTACTGCCTCGGA
B4: sh-panSept4: miR30-designed shRNA targeting all Sept4-isoforms, including ARTS (nucleic acid)
chain: TGCTGTTGACAGTGAGCGCAAGCACGCAGTGGATATAGAATAGTGAAGCCACAGATGTATTCTATATCCACTGCGTGCTTATGCCTACTGCCTCGGA

Experiments:
ARTS mRNA = assay: RT-PCR of ARTS mRNA after exposure to chromatin-modifying drugs; assay type: cell-based, human; conditions: for ARTS mRNA level: HCC cell-lines, individual treatment, AZA 10 μM, TSA 1 μM; for ARTS levels: PH5CH non-malignant hepatocyte cell-line
Method: Quantitative reverse transcription polymerase chain reactions (qRT-PCR) incorporating SYBR Green (Applied Biosystems) were carried-out using a Realplex qPCR Mastercycler (Eppendorf; Hauppauge, N.Y.). For semi-quantitative PCR, total RNA was extracted from cell-lines using Trizol reagent (Invitrogen, Carlsbad, Calif.) and in turn, was used to synthesize cDNA using random primers, reagents, and protocol provided in the Superscript 1st strand synthesis kit (Invitrogen). Normalized amounts of cDNA served as template in standard PCR using AmpliTaq DNA polymerase (Applied Biosystems). Immunoblotting was performed as previously described in (7). Cell extracts were prepared from tumor and adjacent non-tumor control tissues that were excised from the liver of sacrificed mice, homogenized by Polytron PT 2100 (Brinkman) in Triton X-100 lysis buffer and clarified by centrifugation. Extracts were normalized for protein concentration by Bradford assay (BioRad) prior to immunoblotting procedures. Signal detection was performed with enhanced chemiluminescence kit (Amersham). The following primary antibodies were used: anti-A6 (gift from Dr. V. Factor NCI/NIH), anti-Flag and anti-β-actin (Sigma); anti-XIAP (Becton Dickinson); anti-cIAP-1 (R&D Systems); anti-β-catenin and anti-Survivin (Cell Signaling), anti-cytokeratin-8 (Fitzgerald Indust. Intl., Concord, Mass.). 5-Aza-2′deoxycytidine (AZA), Trichostatin A (TSA), and cycloheximide (CHX) were purchased from Sigma-Alrich. Tumor-necrosis factor-α, the anti-Fas antibody (Jo-2), and the in vitro methylated genomic Hela DNA were obtained from Peprotech, Pharminogen, and New England Biolabs, respectively. To examine the possibility of epigenetic regulation, chromatin-modifying drugs were tested for their ability to influence ARTS expression. Cells were exposed to DNA-methyltransferase and HDAC inhibitors 5′ aza-cytosine (AZA) and trichostatin A (TSA), respectively.

ARTS = assay: Western blot of ARTS knockdown by hairpins in NIH3T3 fibroblasts; assay type: cell-based
Method: (§1) miR30-designed shRNAs were subcloned into the pLMP (MSCV-based) retroviral vector as previously described (30). Briefly, individual shRNAs were synthesized as 97 base-pair oligos (Sigma Genosys), PCR-amplified, ligated into pLMP following EcoRI/XhoI-digestion.
Immunoblotting was performed as previously described in (7). Cell extracts were prepared from tumor and adjacent non-tumor control tissues that were excised from the liver of sacrificed mice, homogenized by Polytron PT 2100 (Brinkman) in Triton X-100 lysis buffer and clarified by centrifugation. Extracts were normalized for protein concentration by Bradford assay (BioRad) prior to immunoblotting procedures. Signal detection was performed with enhanced chemiluminescence kit (Amersham). The following primary antibodies were used: anti-A6 (gift from Dr. V. Factor NCI/NIH), anti-Flag and anti-β-actin (Sigma); anti-XIAP (Becton Dickinson); anti-cIAP-1 (R&D Systems); anti-β-catenin and anti-Survivin (Cell Signaling), anti-cytokeratin-8 (Fitzgerald Indust. Intl., Concord, Mass.). 5-Aza-2′deoxycytidine (AZA), Trichostatin A (TSA), and cycloheximide (CHX) were purchased from Sigma-Alrich. Tumor-necrosis factor-α, the anti-Fas antibody (Jo-2), and the in vitro methylated genomic Hela DNA were obtained from Peprotech, Pharminogen, and New England Biolabs, respectively.

Sept4/H5-Flag = assay: Western blot (anti-Flag) of Sept4/H5-Flag knockdown in NIH3T3 fibroblasts; assay type: cell-based; conditions: NIH3T3 fibroblasts stably expressing Sept4/H5-Flag; retroviral shRNA; anti-Flag immunoblot
Method: FIG. 5I. A pan-Sept4- and Sept4/H5-specific short-hairpins promote efficient knowndown. […] NIH3T3 fibroblasts stably expressing Flag-epitope tagged Sept4/H5 (Sept4/H5-Flag) were transduced with retroviruses harboring the indicated shRNAs, a non-silencing control, or left un-infected Immunoblotting was performed with anti-Flag antibody to detect Sept4/H5-Flag expression (red arrow).
as §1
Immunoblotting was performed as previously described in (7). Cell extracts were prepared from tumor and adjacent non-tumor control tissues that were excised from the liver of sacrificed mice, homogenized by Polytron PT 2100 (Brinkman) in Triton X-100 lysis buffer and clarified by centrifugation. Extracts were normalized for protein concentration by Bradford assay (BioRad) prior to immunoblotting procedures. Signal detection was performed with enhanced chemiluminescence kit (Amersham). […]

PHM-1 hepatoblasts = assay: Growth of PHM-1 hepatoblasts after sub-cutaneous transplantation into host mice; assay type: in vivo; conditions: PHM-1 cells carrying the hairpin, sub-cutaneous injection into host mice
Text: FIG. 5D. Growth of PHM-1 hepatoblasts following their sub-cutaneous transplantation into host mice. Values are the mean±standard deviation of four independent experiments. P-values: *P=0.04, **P=0.03, and ***P=0.01.
Details on isolation, culture, retrovirus-mediated gene transfer, and sub-cutaneous transplantation of hepatoblasts can be found in (30). Cell viability was monitored by propidium iodide (PI) nuclear staining and flow cytometric analysis.

Molecule	ARTS mRNA level (ARTS mRNA)	ARTS levels (ARTS mRNA)	ARTS levels (knockdown) (ARTS)	also measured
Nc1ncn([C@H]2C[C@H](O)[C@@H](CO)O2)c(=O)n1 [AZA, 5-Aza-2′deoxycytidine]	upregulation of ARTS mRNA; also recorded: induced ARTS mRNA to levels comparable to those observed in normal hepatocytes	little appreciable effect		
CC(/C=C/C(=O)NO)=C\[C@@H](C)C(=O)c1ccc(N(C)C)cc1 [TSA, Trichostatin A]	upregulation of ARTS mRNA; also recorded: induced ARTS mRNA to levels comparable to those observed in normal hepatocytes	little appreciable effect		
B1			capable of reducing ARTS levels	
B2			capable of reducing ARTS levels	
B3			capable of reducing ARTS levels	
B4			capable of reducing ARTS levels	Sept4/H5 knockdown (Sept4/H5-Flag): highly effective Sept4/H45 knockdown; tumor growth (PHM-1 hepatoblasts): promoted tumor growth
